Measured values as given in publication PMC12245028.

Molecular target: p65 (RELA, Transcription factor p65) (UniProt Q04206)
Test: anti-HA co-IP, p65 blot
Details: reference: HA-WEE1 wild type; sites S642

Substance: HA-WEE1 (from UniProt P30291) HA-WEE1 S642A
- binding against the reference: lost
